Values of other authors in paper PMC4492699.

Target: HER2 (Homo sapiens) (UniProt P04626)

In the case of trastuzumab, the Kd is given as 0.1 nM.
